This assay deals with human syndecan-1 with C-terminal HA tag (Syn-1-HA), stably expressed on GM00701 cells (human) (UniProt P18827). Kind of assay: radioligand binding; ^125I-apoE-VLDL (2 μg/ml; in Figure 2C supplemented with 3 μg/ml apoE) on GM00701 or GM00701/Syn-1-HA cells, 4°C, 3 h, 20 mM Hepes pH 7.4, 150 mM NaCl, 2 mM CaCl2, 1% BSA; without or with unlabeled apoE-VLDL (100 μg/ml); specific binding = total minus non-competable.
Sequence of UniProt P18827 (P18827 23-310): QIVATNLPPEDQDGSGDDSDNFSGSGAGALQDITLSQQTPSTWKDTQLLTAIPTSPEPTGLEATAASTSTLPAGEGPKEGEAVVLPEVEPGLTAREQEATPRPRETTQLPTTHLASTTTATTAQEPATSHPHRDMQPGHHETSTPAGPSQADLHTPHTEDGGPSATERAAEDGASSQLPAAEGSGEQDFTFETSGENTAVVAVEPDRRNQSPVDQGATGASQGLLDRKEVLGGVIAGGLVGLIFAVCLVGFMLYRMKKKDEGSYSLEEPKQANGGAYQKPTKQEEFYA

“apoE-VLDL (very low density lipoprotein particles with apoB100 and apoE, from rabbit plasma) (from UniProt P18287 19-311; P17165 1-144) (complex)” displayed a fold increase in specific binding over control GM00701 cells of 5 fold.

For the origin of these results see PMC1592478.
